Measurements taken from the supplement of paper PMC10567573.

B1: ZNF649 (parent)
chain: LVAHQRYHTGKTPFVCPECGQPCS

Variants of: B1
Test: protein stability index of a GFP-peptide fusion (GPS, HEK-293T) (PSI 1-6); higher = more stable
Settings: c terminus: a fixed tail appended
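Note: lentivirally expressed fusions sorted by FACS into six bins by GFP to DsRed ratio, PSI derived from sequencing read proportions per bin multiplied by bin number.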

Point of comparison: P17C, protein stability index 2.98. Against it:
- C19I — lower, 2.58
- C19E — higher, 3.03
- C19H — lower, 2.92
- C19M — lower, 2.58
- C19K — higher, 3.14
- C19A — lower, 2.89
- C19L — lower, 2.39
- C19G — higher, 3.05
- C19D — higher, 3.63
- C19F — lower, 2.06
- K11Y — higher, 3.07
- K11V — higher, 4.02
- K11C — higher, 3.39
- K11I — higher, 3.31
- K11P — higher, 3.06
- K11Q — higher, 3.67
- K11W — lower, 2.91
- K11A — higher, 3.98
- K11N — higher, 3.48
- K11D — higher, 3.45
- K11H — higher, 3.35
- K11M — higher, 3.31
- K11T — higher, 3.19
- K11R — higher, 3.75
- K11E — higher, 3.67
- K11F — lower, 2.81
- K11L — higher, 3.49
- K11S — higher, 3.77
- K11G — higher, 3.45
- G10T — higher, 3.01
- G10Y — lower, 2.82
- G10V — lower, 2.85
- G10S — lower, 2.4
- G10W — higher, 3.9
- V15P — higher, 3.77
- V15R — higher, 3.06
- V15W — lower, 2.67
- V15G — higher, 3.03
- V15I — lower, 2.74
- V15T — higher, 3.11
- V15D — higher, 3.83
- V15K — lower, 2.42
- V15N — higher, 3.51
- V15F — lower, 2.76
- V15L — higher, 3.2
- V15E — higher, 3.66
- V15S — higher, 3.19
- V15M — higher, 3.3
- V15Y — lower, 2.96
- V15H — lower, 2.4
- V15C — lower, 2.88
- V15Q — higher, 3.36
- V15A — higher, 3.33
- E18Y — lower, 2.27
- E18V — lower, 2.31
- E18Q — higher, 3.31
- E18F — lower, 2.56
- E18A — higher, 2.99
- E18S — higher, 3.11
- E18L — lower, 2.66
- E18T — lower, 2.4
- E18I — lower, 2.61
- E18D — higher, 3.18
- E18W — lower, 2.7
- E18M — lower, 2.58
- E18N — lower, 2.34
- E18P — lower, 1.91
- E18R — lower, 2.18
- E18H — lower, 2.38
- E18C — lower, 2.82
- E18G — lower, 1.8
- E18K — lower, 2.54
- T12V — higher, 3.13
- T12G — higher, 3.04
- T12A — higher, 3.49
- T12R — lower, 2.91
- T12K — higher, 3.15
- T12P — higher, 3.2
- T12I — higher, 3.7
- T12F — lower, 2.77
- T12C — higher, 3.01
- T12S — higher, 3.5
- T12N — higher, 3.39
- T12Y — higher, 3.02
- T12W — lower, 2.96
- T12H — lower, 2.56
- T12E — higher, 3.86
- T12M — higher, 3.12
- T12L — lower, 2.96
- T12Q — lower, 2.68
- T12D — higher, 3.06
- C16H — lower, 2.64
- C16V — lower, 2.58
- C16I — lower, 2.14
- C16M — lower, 2.72
- C16W — lower, 1.86
- C16G — lower, 2.91
- C16N — lower, 2.88
- C16R — lower, 2.89
- C16E — higher, 3.01
- C16Q — higher, 3.03
- C16Y — lower, 2.37
- C16L — lower, 2.5
- C16D — higher, 3.8
- C16T — lower, 2.27
- C16F — lower, 2.28
- C16P — higher, 3.48
- C16S — higher, 3.16
- C16K — lower, 2.75
- C16A — lower, 2.35
- P13S — higher, 3.65
- P13Y — higher, 3.26
- P13A — lower, 2.94
- P13M — higher, 3.27
- P13R — higher, 3.31
- P13G — lower, 2.94
- P13H — higher, 3.36
- P13D — higher, 3.46
- P13V — higher, 3.32
- P13Q — higher, 3.32
- P13E — higher, 3.7
- P13K — higher, 3.36
- P13N — higher, 3.64
- P13L — lower, 2.62
- P13F — lower, 2.8
- P13T — higher, 4.15
- P13C — lower, 2.71
- P13I — lower, 2.76
- P13W — higher, 3.63
- P17F — lower, 2.16
- P17V — lower, 2.59
- P17G — lower, 2.92
- P17D — higher, 3.35
- P17A — lower, 2.84
- P17H — lower, 2.86
- P17W — lower, 2.37
- P17Q — higher, 3.51
- P17L — lower, 2.26
- P17K — higher, 3.37
- P17I — lower, 2.73
- P17Y — lower, 2.48
- P17N — higher, 3.48
- P17M — lower, 2.77
- P17S — higher, 3.37
- P17R — lower, 2.26
- P17E — higher, 3.16
- P17T — higher, 3.04
- F14D — higher, 4.18
- F14C — higher, 3.65
- F14P — higher, 3.58
- F14M — higher, 3.25
- F14T — higher, 4.22
- F14I — higher, 3.61
- F14E — higher, 4.44
- F14W — higher, 3.1
- F14G — higher, 4.1
- F14R — higher, 3.38
- F14H — higher, 3.02
- F14N — higher, 3.7
- F14A — higher, 3.94
- F14S — higher, 3.93
- F14K — higher, 3.28
- F14Q — higher, 3.38
- F14L — higher, 3.7
- F14Y — higher, 3
- F14V — higher, 3.81
